B1: UL16 ectodomain, monomeric, untagged (domain or fragment)
chain: VDLGSKSSNSTCRLNVTELASIHPGETWTLHGMCISICYYENVTEDEIIGVAFTWQHNESVVDLWLYQNDTVIRNFSDITTNILQDGLKMRTVPVTKLYTSRMVTNLTVGRYDCLRCENGTTKIIERLYVRLGSLYPRPPGSGLAKHPSVSADEELSA
modifications: N-linked glycans; N-acetylglucosamine seen at asparagines 35, 41, 68, 84, 95, 101 and 132 in the crystal (after EndoH)
notes: UL16 of human cytomegalovirus, ectodomain residues 27-184; the cDNA construct also held the N-terminal signal peptide (residues 1-26), then a thrombin cleavage site and human IgG1-Fc; Residues of the thrombin site may remain at the C-terminus after cleavage; For the crystal the complex was partly deglycosylated with EndoH after complex formation; for SPR the glycosylated protein was used; also …

Key:
[1] = biological target: T1, MICB*02 ectodomain (domains α1, α2 and α3) (human, UniProt Q29980 23-298); experiment: SPR; MICBpf or MICB α1-α3 covalently immobilised on a CM5 chip by amine coupling; untagged monomeric UL16 as analyte, 50 µl/min; kinetic fit (1:1 binding with mass transfer) and equilibrium fit (1:1 Langmuir isotherm); chip not regenerated; settings: both partners purified
T1 construct: also called complete MICB ectodomain; MICBα1α3
T1 sequence: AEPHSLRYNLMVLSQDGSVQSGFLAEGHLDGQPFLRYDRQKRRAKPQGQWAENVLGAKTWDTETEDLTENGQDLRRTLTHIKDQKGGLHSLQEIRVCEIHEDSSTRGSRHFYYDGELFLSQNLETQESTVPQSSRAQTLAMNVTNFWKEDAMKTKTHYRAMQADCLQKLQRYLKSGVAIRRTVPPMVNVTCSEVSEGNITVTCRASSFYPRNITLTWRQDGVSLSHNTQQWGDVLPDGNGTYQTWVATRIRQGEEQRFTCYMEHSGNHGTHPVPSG

Fc-tagged ULBP1 = biological target: T2, Fc-tagged ULBP1 (human, UniProt Q9BZM6 26-216); experiment: SPR; Fc-tagged ULBP ligands captured on a Protein A-G CM5 chip, diluted in HBS-EP pH 7.4 at 25°C; untagged monomeric UL16 as analyte, 50 µl/min; regeneration with 10 mM glycine pH 1.7; settings: both partners purified
T2 construct: ULBP1 (RAET1I), human NKG2D ligand; Captured by its Fc on a Protein A-G chip; also called RAET1I; source: bought: R&D Systems
T2 sequence: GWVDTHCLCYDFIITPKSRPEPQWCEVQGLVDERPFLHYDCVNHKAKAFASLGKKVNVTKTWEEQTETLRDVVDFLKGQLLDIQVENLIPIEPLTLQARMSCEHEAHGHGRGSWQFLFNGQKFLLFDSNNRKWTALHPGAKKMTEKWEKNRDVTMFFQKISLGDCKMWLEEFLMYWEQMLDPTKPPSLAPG

Fc-tagged ULBP2 = biological target: T3, Fc-tagged ULBP2 (human, UniProt Q9BZM5 26-217); experiment: as above; settings: both partners purified
T3 construct: ULBP2 (RAET1H), human NKG2D ligand; Captured by its Fc on a Protein A-G chip; also called RAET1H; source: bought: R&D Systems
T3 sequence: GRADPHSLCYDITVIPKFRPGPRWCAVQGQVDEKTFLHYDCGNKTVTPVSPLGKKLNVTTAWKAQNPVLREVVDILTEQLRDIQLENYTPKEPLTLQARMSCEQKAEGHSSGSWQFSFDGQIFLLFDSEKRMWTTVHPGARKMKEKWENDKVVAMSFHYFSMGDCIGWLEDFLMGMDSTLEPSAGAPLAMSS

[2] = biological target: T4, MICB*02 α1α2-platform domain (MICBpf) (human); experiment: SPR; kinetic fit
T4 chain: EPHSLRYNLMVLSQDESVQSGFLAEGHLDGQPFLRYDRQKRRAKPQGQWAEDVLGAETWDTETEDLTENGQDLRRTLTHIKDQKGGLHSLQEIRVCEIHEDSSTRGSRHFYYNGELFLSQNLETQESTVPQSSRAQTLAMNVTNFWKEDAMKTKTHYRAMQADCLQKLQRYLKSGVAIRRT

[3] = biological target: T5, MICB*02 ectodomain (domains α1, α2 and α3) (human, UniProt Q29980 23-298); experiment: SPR; kinetic fit
T5 chain: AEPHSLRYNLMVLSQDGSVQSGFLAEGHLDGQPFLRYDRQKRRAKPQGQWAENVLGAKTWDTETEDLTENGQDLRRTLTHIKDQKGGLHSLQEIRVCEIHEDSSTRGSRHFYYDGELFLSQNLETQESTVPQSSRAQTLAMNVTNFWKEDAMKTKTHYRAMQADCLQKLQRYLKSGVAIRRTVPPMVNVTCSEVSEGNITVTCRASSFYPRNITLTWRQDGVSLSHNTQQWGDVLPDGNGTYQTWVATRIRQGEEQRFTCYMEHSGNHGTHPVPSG

[4] = biological target: B1; experiment: SPR; MICBpf or MICB α1-α3 covalently immobilised on a CM5 chip by amine coupling; untagged monomeric UL16 as analyte, 50 µl/min; kinetic fit (1:1 binding with mass transfer) and equilibrium fit (1:1 Langmuir isotherm); chip not regenerated; settings: both partners purified

B1 was tested, and the Kd [1] was 67 nM, the Kd (Fc-tagged ULBP1) was 12 nM and the binding result (Fc-tagged ULBP2) was “binds”. The koff [2] was 0.054 s⁻¹ and the koff [3] was 0.045 s⁻¹.

B2: MICB*02 α1α2-platform domain (MICBpf) (domain or fragment)
chain: EPHSLRYNLMVLSQDESVQSGFLAEGHLDGQPFLRYDRQKRRAKPQGQWAEDVLGAETWDTETEDLTENGQDLRRTLTHIKDQKGGLHSLQEIRVCEIHEDSSTRGSRHFYYNGELFLSQNLETQESTVPQSSRAQTLAMNVTNFWKEDAMKTKTHYRAMQADCLQKLQRYLKSGVAIRRT
Work on B2 yielded a Kd [4] of 66 nM.

— PMC2797645, “Structure of the HCMV UL16-MICB Complex Elucidates Select Binding of a Viral Immunoevasin to Diverse NKG2D Ligands” (PLoS Pathogens, 2010)
